Assay results published in patent US20050069542A1 (Human Genome Sciences, published 2005).

T1: flag-tagged soluble TL3 (amino acids 105-251 of SEQ ID NO:234) (Homo sapiens (Human), UniProt O75888 105-250)
T1 construct: Heterologous flag-tagged control protein, immobilized in the ELISA; also called flagged tagged TL-3; not shown: Flag tag
T1 sequence: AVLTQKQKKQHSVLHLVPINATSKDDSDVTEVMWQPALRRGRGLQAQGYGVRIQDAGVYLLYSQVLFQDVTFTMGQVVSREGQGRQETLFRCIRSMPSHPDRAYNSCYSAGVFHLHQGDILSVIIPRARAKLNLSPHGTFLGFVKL


These binders were tested against T1, flag-tagged soluble TL3 (amino acids …) (assay: phage ELISA on immobilized flag-tagged soluble TL3).
Experimental: The individual phage isolates in the panel of phage, each phage expressing a unique scFv that bound to flag-tagged GMAD, were tested to ensure specificity for GMAD using an ELISA assay. The scFvs were tested in an ELISA for their ability to bind a heterologous flag-tagged protein, in this case—immobilized soluble TL3 (amino acids 105-251 of SEQ ID NO:234, GenBank Accesion Number NP_{—}003799, also described in International Patent Application Publication Number WO97/33902 and WO2001/96528 which are herein incorporated by reference in their entireties).

Row | Binder | binding result
1 | GMBC642 (scFv) scFv: QVQLQQSGAEVKKPGASVKVSCKASGYTFTIHYMHWVRQAPGQGLEWMGIINPGDGSTSYAQNFQGRVTMTRDTSTSTVYMELSSLRSEDTAVYYCARAGRTVTSHFDYWGRGTLATVSSGGGGSGGGGSGGGGSSELTQDPAVSVALGQTVRITCQGDSLRSYYASWYQQKPGQAPVLVIYGKNNRPSGIPDRFSGSSSGNTASLTITGAQAEDEADYYCNSRDSSGNHVVFGGGTKLTVLG | no binding
2 | GMBC639 (scFv) scFv: GVQLVQSGAEVKTPGASVKVSCKASGYTFTNHYMHWVRQAPGQGIEWVGVINPSGDGSSYAQTFQGRVTMTRDTSTSTVYMELRSLRSDDTAVYYCARDLFYDFWSDYYRNDQYYYMDVWGKGTLVTVSSGGGGSGGGGSGGGGSSELTQDPAVSVALGQAVRITCQGDSLRSYYASWYQQKPGQAPVLVIYGKNNRPSGIPDRFSGSSSGNTASLTITGAQAEDEADYYCNSRDSSGNHVVFGGGTKLTVLG | no binding
3 | GMBC665 (scFv) scFv: EVQLVETGGGLVKPGGSLRLSCAASGFTFSDAWMNWVRQAPGKGLEWVGRIKSKGSGGTIDYAAPVKDRFTISRDDSKNTLYLQMNSLKTEDTALYYCTWDWDFYYGMNVWGQGTMVTVSSGGGGSGGGGSGGGGSSELTQDPAVSVALGQTVRITCQGDSLRSYYASWYQQKPGQAPVLVIYGKNNRPSGIPDRFSGSSSGNTASLTITGAQAEDEADYYCNSRDSSGNHVVFGGGTKLTVLG | no binding
4 | GMBC632 (scFv) scFv: QVQLVQSGGGLVKPGGSLRLSCAGSGFKFSDAWMNWVRQAPGKGLEWVGRIKSKGSGGTIEYAAPVKDRFIISRDDSKDTLYLQMNSLKTEDTALYYCTWDWDFYYDMNVWGQGTMVTVSSGGGGSGGGGSGGGGSSELTQDPAVSVALGQTVRITCQGDSLRSYYASWYQQKPGQAPVLVIYGKNNRPSGIPDRFFGSSSGNTASLTITGAQAEDEADYYCNSRDSSGNHVVFGGGTKLTVLG | no binding
5 | GMBC648 (scFv) scFv: QVQLVESGGGLVKPGGSLRLSCAASGFTFSDAWMNWVRQAPGKGLEWVGRIKSKRSGGTIDYAAPVKDRFTISRDDSKNTLYLQMNSLKTEDTALYYCTWDWDFYYGMNVWGQGTMVTVSSGGGGSGGGGSGGGGSSELTQDPTVSVALGQTVRITCQGDSLRSYYASWYQQKPGQAPVLVIYGKNNRPSGIPDRFSGSSSGNTASLTITGAQAEDEADYYCNSRDSSGNHVVFGGGTKLTVLG | no binding
6 | GMBC657 (scFv) scFv: QMQLMQSGGGLVKPGGSLRLSCAGSGFKFSDAWMNWVRQAPGKGLEWVGRIKSKGSGGTIEYAAPVKDRFIISRDDSKDTLYLQMNSLKTEDTALYYCTWDWDFYYGMNVWGQGTLVTVSSGGGGSGGGGSGGGGSSELTQDPAVSVALGQTVRITCQGDSLRSYYASWYQQKPGQAPVLVIYGKNNRPSGIPDRFSGSSSGNTASLTITGAQAEDEADYYCNSRDSSGNHVVFGGGTKLTVLG | no binding
7 | GMBC635 (scFv) scFv: EVQLVESGGGLVKPGGSLRLSCAASGFTFSDAWMNWVRQAPGKGLEWVGRIKSKGSGGTIDYAAPVKDRYTISRDDSKNTLYLQMNSLKTEDTALYYCTWDWDFYYGMNVWGKGTMVTVSSGGGGSGGGGSGGGGSSELTQDPAVSVALGQTVRITCQGDSLRSYYASWYQQKPGQAPVLVIYGKNNRPSGIPDRFSGSSSGNTASLTITGAQAEDEADYYCNSRDSSGNHVVFGGGTKLTVLG | no binding
8 | GMBC668 (scFv) scFv: EVQLVESGGGLVKPGGSLRLSCAASGFTFSDAWMNWVRQAPGKGLEWVGRIKSKGSGGTTDYAAPVKGRFTISRDDSENTLYLQMNSLKTEDTAVYYCTWDHSYYYDMAVWGRGTLVTVSSGGGGSGGGGSGGGGSSELTQDPAVSVALGQTVRITCQGDSLRSYYASWYQQKPGQAPVLVIYGKNNRPSGIPDRFSGSSSGNTASLTITGAQAEDEADYYCNSRDSSGNHVVFGGGTKLTVLG | no binding
9 | GMBC682 (scFv) scFv: QVQLVESGGGVVKPGGSLRLSCAASGFKFSDAWMNWVRQAPGKGLEWVGRIKSKGSGGTIDYAAPVKDRFTISRDDSKNTLYLQMNSLKTEDTALYYCTWDWDFYYGMNVWGRGTLVTVSSGGGGSGGGGSGGGGSSELTQDPAVSVALGQTVRITCQGDSLRSYYASWYQQKPGQAPVLVIYGKNNRPSGIPDRFSGSSSGNTASLTITGAQAEDEADYYCNSRDSSGNHVVFGGGTKLTVLG | no binding
10 | GMBC629 (scFv) scFv: QVQLVESGGGLVKPGGSLRLSCAGSGFKFSDAWMNWVRQAPGKGLEWVGRIKSKGSGGTIEYAVPVKDRFIISRDDSKDTLYLQMNSLKTEDTALYYCTWDWDFYYGMNVWGQGTLVTVSSGGGGSGGGGSGGGGSSELTQDPAVSVALGQTVRITCQGDSLRSYYTNWFQQKPGQAPLLVVYAKNKRPSGIPDRFSGSSSGNTASLTITGAQAEDEADYYCHSRDSSGNHVLFGGGTKLTVLG | no binding
11 | GMBC606 (scFv) scFv: EVQLVQSGGGVVQPGGSLRLSCAASGFTFSSYGMHWVRQAPGKGLEWVAFIRYDGSNKYYADSVKGRFTISRDNSKNTLYLQMNSLRAEDTAVYYCAKSSSFANAFDIWGQGTTVTVSSGGGGSGGGGSGGGGSSELTQDPAVSVALGQTVRITCQGDSLRSYYASWYQQKPGQAPVLVIYGKNNRPSGIPDRFSGSSSGNTASLTITGAQAEDEADYYCNSRDSSGNHVVFGGGTKLTVLG | no binding

Other lines, results leading:

Row | binding result | Binder
12 | no binding | GMBC628 (scFv) scFv: QVQLQQSGAEVKKPGASVRVSCKASGYTFTSYGFSWVRQAPGQRLEWMGWISAYKGNANYAEKFQGRVTMTTDTSTNTAYMELRSLRSDDTAVYYCARTRISVAGLDYYYYGLDVWGRGTLVTVSSGGGGSGGGGSGGGGSSELTQDPAVSVALGQTVRITCQGDSLRSYYTNWFQQKPGQAPLLVVYAKNNRPSGIPDRFSGSSSGNTASLTITGAQAEDEADYYCNSRDSSGNHVVFGGGTKLTVLG
13 | no binding | GMBC729 (scFv) scFv: QVQLQESGGGLVKPGGSLRLSCAGSGFKFSDAWMNWVRQAPGKGLEWVGRIKSKGSGGTIEYAAPVKDRFIISRDDSKDTLYLQMDSLKTEDTALYYCTWDWDFYYGMNVWGQGTLVTVSSGGGGSGGGGSGGGGSSELTQDPAVSVALGQTVRITCQGDSLRNYYTNWFQQKPGQAPLLVVYAKNKRPSGIPDRFSGSSSGNTASLTITGAQAEDEADYYCHSRDSSGNHVLFGGGTKLTVLG
14 | no binding | GMBC685 (scFv) scFv: QVQLVESGGVVVQPGGSLRLSCAASGFTFSDAWMNWVRQAPGKGLEWVGRIKSKGSGGTIDYAAPVKDRFTISRDDSKNTLYLQMNSLKTEDTALYYCTWDWDFYYGMNVWGKGTMVTVSSGGGGSGGGGSGGGGSSELTQDPAVSVALGQTVRITCQGDSLRSYYTNWFQQKPGQAPLLVVYAKNKRPSGIPDRFSGSSSGNTASLTITGAQAEDEADYYCHSRDSSGNHVLFGGGTKLTVLG
15 | no binding | GMBC630 (scFv) scFv: QVQLVESGGGLVQPGRSLRLPCAASGFTFSSYGMHWVRQAPGKGLEWVAVISYDGSNKYYADSVKGRFTISRDNSKNTLYLQMNSLRAEDTAVYYCAKATSLLNAFDIWGRGTMVTVSSGGGGSGGGGSGGGGSSELTQDPAVSVALGQTVRITCQGDSLRSYYASWYQQKPGQAPVLVIYGKNNRPSGIPDRFSGSSSGNTASLTITGAQAEDEADYYCNSRDSSGNHVVFGGGTKLTVLG
16 | no binding | GMBC725 (scFv) scFv: EVQLVQTGGGVVQPGGSLRLSCAASGFTFSSYGMHWVRQAPGKGLEWVAFILYDGSNKYYADSVKGRFTISRDNSKNTLYLQMNSLRAEDTAVYYCAKSSSSASAFDIWRQRTTVTVSSGGGGSGGGGSGGGGSSELTQDPAVSVALGQTVRITCQGDSLRSYYASWYQQKPGQAPVLVIYGKNNRPSGIPDRFSGSSSGNTASLTITGAQAEDEADYYCNSRDSSGNHVVFGGGTKLTVLG
17 | no binding | GMBC652 (scFv) scFv: GVQLVQSGGVVVKPGGSLRLSCAASGFTFSDAWMNWVRQAPGKGLEWVGRIKSKGSGGTTDYAAPVKGRFTISRDDSENTLYLQMNSLKTEDTAVYYCTWDHSYYYDMAVWGRGTMVTASSGGGGSGGGGSGGGGSQSVLTQPASVSGSPGQSITISCTGTSSDVGGYNYVSWYQQHPGKAPKFMIYDVSKRPSGVSNRFSGSKSGNTASLTISGVQAEDEADYYCSSYTSASTVIFGGGTKLTVLG
18 | no binding | GMBC646 (scFv) scFv: GVQLVQSGAEVKKPGASVKVSCKASGYTFTSYYIHWVRQAPGQGLEWMGIINPSGGTTSYAQKFQGRVTMTRDTSTSTVYMELSSLRSEDTAMYYCARERFLRGMDVWGRGTMVTVSSGGGGSGGGGSGGGGSDIVMTQSPSTLSASVGDRVTITCRASQGISSWLAWYQQKPGRAPKVLIYKASTLESGVPSRFSGSGSGTDFTLTISSLQPEDFATYYCQQSYSTPWTFGQGTKLEIKR
19 | no binding | GMBC641 (scFv) scFv: EVQLVESGGGVVRPGRSLRLSCAASGFSFSSYGMHWVRQAPGKGLEWVSAISGSGGSTYYADSVKGRFTISRDNSKNTLYLQMNSLRAEDTAVYFCAKGGDRSFRAFDFWGQGTMVTVSSGGGGSGGGGSGGGGSSELTQDPAVSVALGQTVRITCQGDSLRSYYASWYQQKPGQAPVLVIYGKNNRPSGIPDRFSGSSSGNTASLTITGAQAEDEADYYCNSRDSSGNHVVFGGGTKLTVLG
